From patent publication US20250215095 come the findings set out here.

Series [1] has as its target T1, internally quenched peptide probe with CM AWGLSGRS (SEQ ID NO: 686).
T1 chain: SAWGLSGRSGKR

Series [2] has as its target T2, internally quenched peptide probe with CM LSGKSPWGL (SEQ ID NO: 178).
T2 chain: SLSGKSPWGLGKR

Series [3] has as its target T3, internally quenched peptide probe with CM LSGRSPAGL (SEQ ID NO: 694).
T3 chain: SLSGRSPAGLGKR

The target of series [4] is T4, internally quenched peptide probe with CM LSGRSPWGL (SEQ ID NO: 177).
T4 chain: SLSGRSPWGLGKR

Series [5] deals with T5, internally quenched peptide probe with CM PAGLSGRS (SEQ ID NO: 687).
T5 chain: SPAGLSGRSGKR

Series [6] deals with T6, internally quenched peptide probe with CM PWALSGRS (SEQ ID NO: 688).
T6 chain: SPWALSGRSGKR

Series [7] addresses T7, internally quenched peptide probe with CM PWGASGRS (SEQ ID NO: 689).
T7 chain: SPWGASGRSGKR

Series [8] addresses T8, internally quenched peptide probe with CM PWGLAGRS (SEQ ID NO: 690).
T8 chain: SPWGLAGRSGKR

The target of series [9] is internally quenched peptide probe with CM PWGLRS (SEQ ID NO: 48).
Series [10] deals with T9, internally quenched peptide probe with CM PWGLSARS (SEQ ID NO: 691).
T9 chain: SPWGLSARSGKR

Series [11] deals with T10, internally quenched peptide probe with CM PWGLSG (SEQ ID NO: 684).
T10 chain: SPWGLSGGGSKR

Series [12] has as its target T11, internally quenched peptide probe with CM PWGLSGAS (SEQ ID NO: 692).
T11 chain: SPWGLSGASGKR

Series [13] deals with T12, internally quenched peptide probe with CM PWGLSGKS (SEQ ID NO: 150).
T12 chain: SPWGLSGKSGKR

Series [14] has as its target T13, internally quenched peptide probe with CM PWGLSGR (SEQ ID NO: 163).
T13 chain: SPWGLSGRGSKR

The target of series [15] is T14, internally quenched peptide probe with CM PWGLSGRA (SEQ ID NO: 693).
T14 chain: SPWGLSGRAGKR

Series [16] addresses T15, internally quenched peptide probe with CM PWGLSGRS (SEQ ID NO: 12).
T15 chain: SPWGLSGRSGKR

The target of series [17] is internally quenched peptide probe with CM RSPWGL (SEQ ID NO: 90).
In series [18] the target is T16, internally quenched peptide probe with CM WGLSGRS (SEQ ID NO: 685).
T16 chain: GSWGLSGRSGKR

B1: matrix metalloprotease 2 (MMP2) (protein)
chain: YNFFPRKPKWDKNQITYRIIGYTPDLDPETVDDAFARAFQVWSDVTPLRFSRIHDGEADIMINFGRWEHGDGYPFDGKDGLLAHAFAPGTGVGGDSHFDDDELWTLGEGQVVRVKYGNADGEYCKFPFLFNGKEYNSCTDTGRSDGFLWCSTTYNFEKDGKYGFCPHEALFTMGGNAEGQPCKFPFRFQGTSYDSCTTEGRTDGYRWCGTTEDYDRDKKYGFCPETAMSTVGGNSEGAPCVFPFTFLGNKYESCTSAGRSDGKMWCATTANYDDDRKWGFCPDQGYSLFLVAAHEFGHAMGLEHSQDPGALMAPIYTYTKNFRLSQDDIKGIQELYGASPDIDLGTGPTPTLGPVTPEICKQDIVFDGIAQIRGEIFFFKDRFIWRTVTPRDKPMGPLLVATFWPELPEKIDAVYEAPQEEKAVFFAGNEYWIYSASTLERGYPKPLTSLGLPPDVQRVDAAFNWSKNKKTYIFAGDKFWRYNEVKKKMDPGFPKLIADAWNAIPDNLDAVVDLQGGGHSYFFKGAYYLKLENQSLKSVKFGSIKSDWLGC
Turning to B1, the Probe Cleavage (pM/s) in series [1] is 816 pM/s; in [2], 37.1 pM/s; in series [3], 2080 pM/s; in series [4] it was 48.9 pM/s; in series [5], “Above the limit of quantification”; in series [6], 4890 pM/s. For the same protein, the Probe Cleavage (pM/s) stood at 202 pM/s in series [7]; 4870 pM/s in series [8]; 3800 pM/s in series [9]; 9580 pM/s in series [10]; 3100 pM/s in [11]; 4370 pM/s in series [12]. The Probe Cleavage (pM/s) in series [13] is 1620 pM/s; in [14] it was 6540 pM/s; in series [15], 6100 pM/s; in [16] it was 2920 pM/s; in [17] it was 11700 pM/s; in series [18], 66.4 pM/s. In addition, the Probe Cleavage (kcat/KM (M^-1 s^-1)) in series [9] was 140000 M⁻¹ s⁻¹; in series [13], 59000 M⁻¹ s⁻¹; in [16], 78000 M⁻¹ s⁻¹; in series [17] it was 260000 M⁻¹ s⁻¹.

B2: membrane type serine protease 1 (MT-SP1) (protein)
chain: VVGGTDADEGEWPWQVSLHALGQGHICGASLISPNWLVSAAHCYIDDRGFRYSDPTQWTAFLGLHDQSQRSAPGVQERRLKRIISHPFFNDFTFDYDIALLELEKPAEYSSMVRPICLPDASHVFPAGKAIWVTGWGHTQYGGTGALILQKGEIRVINQTTCENLLPQQITPRMMCVGFLSGGVDSCQGDSGGPLSSVEADGRIFQAGVVSWGDGCAQRNKPGVYTRLPLFRDWIKENTGV
On to B2, for which the Probe Cleavage (pM/s) in [1] was 17000 pM/s; in series [2] it was 595 pM/s; in [3] it was 1520 pM/s; in series [4], 812 pM/s; in series [5], 16500 pM/s; in [6] it was 15300 pM/s. In addition, the Probe Cleavage (pM/s) in series [7] turned out to be 18000 pM/s; in [8] it was 15800 pM/s; in series [9] it was 1230 pM/s; in series [10] it was 13100 pM/s; in [11] it was 5.1 pM/s; in [12], 13 pM/s. The Probe Cleavage (pM/s) in series [13] was 2330 pM/s; in [14], 1290 pM/s; in series [15], 7620 pM/s; in series [16], 7810 pM/s; in series [17], 2390 pM/s; in series [18], 10600 pM/s. For the same protein, the Probe Cleavage (kcat/KM (M^-1 s^-1)) worked out at 31000 M⁻¹ s⁻¹ in series [9], 80000 M⁻¹ s⁻¹ in series [13], 150000 M⁻¹ s⁻¹ in series [16] and 48000 M⁻¹ s⁻¹ in series [17].
